These results are taken from patent publication US20240148878A1, “THERAPEUTIC POLY-ADP-RIBOSE POLYMER-GCSF CONJUGATES” (UNIVERSITY OF SOUTHERN CALIFORNIA, priority 2022, published 2024).

In assay [1] the target is T1, GCSF receptor on mouse NFS-60 cells (mouse (NFS-60 cells)) (UniProt P40223).
T1 sequence (looked up): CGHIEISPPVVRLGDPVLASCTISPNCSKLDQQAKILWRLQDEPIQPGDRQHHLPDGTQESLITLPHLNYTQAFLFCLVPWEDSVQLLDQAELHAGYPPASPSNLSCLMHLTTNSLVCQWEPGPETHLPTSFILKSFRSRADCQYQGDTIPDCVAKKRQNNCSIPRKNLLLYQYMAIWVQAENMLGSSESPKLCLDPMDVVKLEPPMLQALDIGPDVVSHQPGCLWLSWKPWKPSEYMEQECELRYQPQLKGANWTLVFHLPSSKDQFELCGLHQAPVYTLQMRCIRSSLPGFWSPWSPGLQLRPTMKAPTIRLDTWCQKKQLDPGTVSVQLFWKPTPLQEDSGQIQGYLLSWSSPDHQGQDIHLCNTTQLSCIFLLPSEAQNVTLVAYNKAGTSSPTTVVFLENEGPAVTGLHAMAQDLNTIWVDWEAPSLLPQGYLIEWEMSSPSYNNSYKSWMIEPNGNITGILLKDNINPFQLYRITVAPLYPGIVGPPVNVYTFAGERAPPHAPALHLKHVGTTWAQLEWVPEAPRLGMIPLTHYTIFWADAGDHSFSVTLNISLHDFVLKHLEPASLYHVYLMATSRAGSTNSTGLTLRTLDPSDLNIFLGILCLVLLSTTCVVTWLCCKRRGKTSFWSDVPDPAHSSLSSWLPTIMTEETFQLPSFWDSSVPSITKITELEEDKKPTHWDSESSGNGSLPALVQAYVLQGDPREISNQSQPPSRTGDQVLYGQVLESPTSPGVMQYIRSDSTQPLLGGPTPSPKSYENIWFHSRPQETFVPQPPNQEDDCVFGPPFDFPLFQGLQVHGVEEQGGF
The assay can be described thus: cell-based or functional assay.

In assay [2] the target is anti-GCSF monoclonal antibody (clone: BVD13-3A5, BioLegend). Description: sandwich ELISA, BVD13-3A5 coated, detection anti-GCSF 3D1-HRP; analyte 125 ng/mL, replicate #1. In general terms: An ELISA detects its analyte on a solid surface through an enzyme-linked reagent.
Assay [3] has the same target. The assay can be described thus: sandwich ELISA, BVD13-3A5 coated, detection anti-GCSF 3D1-HRP; analyte 125 ng/mL, replicate #2.
Assay [4] has the same target. Description: sandwich ELISA, BVD13-3A5 coated, detection anti-GCSF 3D1-HRP; analyte 250 ng/mL, replicate #1.
Assay [5] shares this target. Description: sandwich ELISA, BVD13-3A5 coated, detection anti-GCSF 3D1-HRP; analyte 250 ng/mL, replicate #2.
Assay [6] shares this target. The assay can be described thus: sandwich ELISA, BVD13-3A5 coated, detection anti-GCSF 3D1-HRP; analyte 500 ng/mL, replicate #1.
Assay [7] has the same target. The assay can be described thus: sandwich ELISA, BVD13-3A5 coated, detection anti-GCSF 3D1-HRP; analyte 500 ng/mL, replicate #2.
The target is the same in assay [8]. The assay can be described thus: sandwich ELISA, BVD13-3A5 coated, detection anti-GCSF 3D1-HRP; analyte 62.5 ng/mL, replicate #1.
Assay [9] shares this target. Description: sandwich ELISA, BVD13-3A5 coated, detection anti-GCSF 3D1-HRP; analyte 62.5 ng/mL, replicate #2.
The target is the same in assay [10]. The assay can be described thus: sandwich ELISA, BVD13-3A5 coated, detection anti-GCSF 3D1-HRP; analyte 31.25 ng/mL, replicate #1.
For assay [11] the target is unchanged. Description: sandwich ELISA, BVD13-3A5 coated, detection anti-GCSF 3D1-HRP; analyte 31.25 ng/mL, replicate #2.
Assay [12] relates to mouse NFS-60 cells. Description: In vitro proliferation assay (MTT). Conditions: for EC50: NFS-60 cells, 72 hours, MTT, read-out: EC50 of stimulatory (proliferative) activity. The assay is classed as cell-based. On the procedure:
FIG. 3 illustrates the PARylated PARP1-GCSF conjugate stimulates proliferation of mouse NFS-60 cells in a dose-dependent manner. Cells were treated with various concentrations of PARylated PARP1, PARylated PARP1-GCSF conjugate, and human GCSF for 72 hours. Cell viabilities were quantified using MTT assays.
Cell lines. Mouse NFS-60 cells were grown in RPMI 1640 medium containing 10% FBS, 0.05 mM 2-mercaptoethanol and 62 ng/mL human recombinant macrophage colony stimulating factor (M-CSF). Expi293F cells were purchased from Thermo Fisher Scientific and cultured in Expi293F expression medium with shaking at a speed of 125 rpm at 37° C. and 8% CO2.
In vitro proliferation assays. Mouse NFS-60 cells were cultured in RPMI 1640 medium containing 10% FBS, 0.05 mM 2-mercapoethanol and 62 ng/ml human recombinant M-CSF. To examine the proliferative activity of PARylated PARP1-GCSF conjugate, cells were washed three times with DPBS buffer, resuspended in RPMI-1640 medium with 10% FBS and 0.05 mM 2-mercapoethanol, plated in 96-well plates (1.5×10^4 cells per well) with various concentrations of GCSF, PARylated PARP1, or PARylated PARP1-hG-CSF conjugate, and incubated for 72 hours at 37° C. with 5% CO2. Cells were then treated with 0.5 mg mL^−1 3-(4,5-dimethylthiazol-2-yl)-2,5-diphenyltetrazolium bromide (MTT) solution for 3 hours at 37° C., followed by additions of 100 μL of lysis buffer (20% SDS in 50% dimethylformamide, 0.5% (v:v) 80% acetic acid, 0.4% (v:v) 1 N HCl, pH 4.7) and incubated for 4 hours at 37° C. Fluorescence intensity measured at 595 nm is proportional to cell viability.

Assay [13] concerns neutrophil populations in blood. Description: In vivo efficacy: neutrophil populations in blood by flow cytometry after single s.c. dose. On the set-up: species or system CD1 mice. The following applies: for neutrophil percentage reached after sharp increase: within 24 hours, from approximately 10%. From the text: FIG. 4A-C illustrates in vivo efficacy of the PARylated PARP1-GCSF conjugate. Single doses of GCSF (1.25 nmol), PARylated PARP1 (2.5 nmol) and PARylated PARP1-GCSF conjugate (0.5 or 2.5 nmol) were administrated by subcutaneous (s.c.) injections into CD1 mice (five per group). Blood was collected and analyzed for neutrophil populations by flow cytometry using fluorophore-labeled anti-mouse CD45, anti-mouse CD11b, and anti-mouse Ly-6G antibodies. (A)-(B) Neutrophil percentages in mouse blood after the single-dose treatments. For (B), 1=PBS; 2=GCSF 1.25 nmol; 3=PARylated PARP1 2.5 nmol; 4=PARylated PARP1-GCSF 0.5 nmol; 5=PARylated PARP1-GCSF 2.5 nmol. (C) Representative flow cytometric analyses of mouse neutrophil populations after treatments with 1) PBS; 2) GCSF 1.25 nmol; 3) PARylated PARP1 2.5 nmol; 4) PARylated PARP1-GCSF 0.5 nmol; and 5) PARylated PARP1-GCSF 2.5 nmol conjugate. ns=not significant, p>0.05; *, p<0.05; **, p<0.01; ***, p<0.001; ****, p<0.0001. Data for the 5 conjugates are listed for days 0, 1, 5, and 11.
Animals. Female CD-1 IGS mice (22-24 g) were purchased from Charles River Laboratories (Wilmington, MA). All animal studies were performed under a protocol approved by the Institutional Animal Care and Use Committee of the University of Southern California.
In vivo efficacy of the PARylated PARP1-GCSF conjugate. Single doses of GCSF (1.25 nmol), PARylated PARP1 (2.5 nmol), or PARylated PARP1-GCSF conjugate (0.5 or 2.5 nmol) were administrated by subcutaneous (s.c.) injections into CD1 mice (5 per group). Blood was collected at day 0 through day 13 and analyzed by flow cytometry to measure percentages of neutrophil populations in white blood cells using pacific blue anti-mouse CD45 (clone: 30-F11, BioLegend), APC anti-mouse CD11b (clone: M1/70, eBioscence, Carlsbad, CA), and FITC anti-mouse Ly-6G antibodies (clone: 1A8, BioLegend).

By EC50 is commonly meant the midpoint of the concentration-response curve.

For “PARylated PARP1-GCSF conjugate (from UniProt P09874 1-1014)”, in assay [1], the EC50, proliferation of mouse NFS-60 cells (MTT, 72 hours) was found to be 6.02 pM. The molecule further came in with a fold potency against free GCSF, proliferation of mouse NFS-60 cells in assay [1] of 4 fold. Also, the Fluorescence Intensity was found to be 32100 in assay [2]; 44700 in assay [3]; 49400 in [4]; 49200 in [5]; 64500 in assay [6]; 64900 in assay [7]. The Fluorescence Intensity is 22800 in [8], 20700 in assay [9], 15900 in assay [10] and 15900 in assay [11].

As for “PARylated PARP1-GCSF conjugate: Auto-PARylated human PARP1 (3′-azido NAD+-derived PAR polymers) click-conjugated with alkyne-functionalized human GCSF, 14.0±0.5 GCSF molecules on average”, the EC50 in [12] is 6.02 ± 0.93 pM. Further, the “fold increased potency versus recombinant human GCSF” value in assay [12] (ratio of EC50, NFS-60 cells) was “approximately 4 fold”. Besides, the “duration of sustained elevated levels of neutrophil” value in [13] (conjugate 2.5 nmol) was 11 days. The “neutrophil-stimulating activity compared with 1.25 nmol GCSF” value in assay [13] (conjugate at a dose of 0.5 nmol) is given as “comparable”. Also, the “neutrophil percentage reached after sharp increase” value in assay [13] is listed as about 50%.

Regarding “Recombinant human granulocyte colony-stimulating factor (GCSF) with His6 tag, expressed in Expi293F cells (from UniProt P09919 31-207) (ligand)”, the EC50, proliferation of mouse NFS-60 cells (MTT, 72 hours) in assay [1] was found to be 24.8 pM. For the same molecule, the Fluorescence Intensity in [2] was found to be 42300; in assay [3], 42700; in [4], 62200; in assay [5], 60700; in [6], 75700; in assay [7], 76500. For the same molecule, the Fluorescence Intensity in [8] was determined as 29400; in [9] it was 29800; in assay [10], 19900; in [11], 20700.

B1: GCSF: Recombinant human granulocyte colony-stimulating factor (His6) expressed in Expi293F cells (protein)
chain: TPLGPASSLPQSFLLKCLEQVRKIQGDGAALQEKLVSECATYKLCHPEELVLLGHSLGIPWAPLSSCPSQALQLAGCLSQLHSGLFLYQGLLQALEGISPELGPTLDTLQLDVADFATTIWQQMEELGMAPALQPTQGAMPAFASAFQRRAGGVLVASHLQSFLEVSYRVLRHLAQPHHHHHH
Regarding B1, the EC50 in assay [12] was 24.8 ± 3.21 pM. Besides, the “neutrophil percentage reached after sharp increase” value in [13] was about 50%.
